# Literature values, collected in article PMC4457300.
# Target: MLL MBM1 4-15 (Homo sapiens) (UniProt Q03164)
substance,measurement,value
menin (from UniProt O00255),Kd,56 nM
